Results as given in article PMC9687537.

B1: GFP–WDR34-WT [human] / LIC3 [human (endogenous in RPE1)] (parent)
chain 1: MATRAQPGPLSQAGSAGVAALATVGVASGPGPGRPGPLQDETLGVASVPSQWRAVQGIRWETKSCQTASIATASASAQARNHVDAQVQTEAPVPVSVQPPSQYDIPRLAAFLRRVEAMVIRELNKNWQSHAFDGFEVNWTEQQQMVSCLYTLGYPPAQAQGLHVTSISWNSTGSVVACAYGRLDHGDWSTLKSFVCAWNLDRRDLRPQQPSAVVEVPSAVLCLAFHPTQPSHVAGGLYSGEVLVWDLSRLEDPLLWRTGLTDDTHTDPVSQVVWLPEPGHSHRFQVLSVATDGKVLLWQGIGVGQLQLTEGFALVMQQLPRSTKLKKHPRGETEVGATAVAFSSFDPRLFILGTEGGFPLKCSLAAGEAALTRMPSSVPLRAPAQFTFSPHGGPIYSVSCSPFHRNLFLSAGTDGHVHLYSMLQAPPLTSLQLSLKYLFAVRWSPVRPLVFAAASGKGDVQLFDLQKSSQKPTVLIKQTQDESPVYCLEFNSQQTQLLAAGDAQGTVKVWQLSTEFTEQGPREAEDLDCLAAEVAA
chain 2: MPSETLWEIAKAEVEKRGINGSEGDGAEIAEKFVFFIGSKNGGKTTIILRCLDRDEPPKPTLALEYTYGRRAKGHNTPKDIAHFWELGGGTSLLDLISIPITGDTLRTFSLVLVLDLSKPNDLWPTMENLLQATKSHVDKVIMKLGKTNAKAVSEMRQKIWNNMPKDHPDHELIDPFPVPLVIIGSKYDVFQDFESEKRKVICKTLRFVAHYYGASLMFTSKSEALLLKIRGVINQLAFGIDKSKSICVDQNKPLFITAGLDSFGQIGSPPVPENDIGKLHAHSPMELWKKVYEKLFPPKSINTLKDIKDPARDPQYAENEVDEMRIQKDLELEQYKRSSSKSWKQIELDS
B2: GFP–WDR34-WT [human] / WDR60 [human (endogenous in RPE1)] (parent)
chain 1: B1 chain 1
chain 2: MEPGKRRTKDDTWKADDLRKHLWAIQSGGSKEERKHREKKLRKESEMDLPEHKEPRCRDPDQDARSRDRVAEVHTAKESPRGERDRDRQRERRRDAKDREKEKLKEKHREAEKSHSRGKDREKEKDRRARKEELRQTVAHHNLLGQETRDRQLLERAERKGRSVSKVRSEEKDEDSERGDEDRERRYRERKLQYGDSKDNPLKYWLYKEEGERRHRKPREPDRDNKHREKSSTREKREKYSKEKSNSFSDKGEERHKEKRHKEGFHFDDERHQSNVDRKEKSAKDEPRKRESQNGEHRNRGASSKRDGTSSQHAENLVRNHGKDKDSRRKHGHEEGSSVWWKLDQRPGGEETVEIEKEETDLENARADAYTASCEDDFEDYEDDFEVCDGDDDESSNEPESREKLEELPLAQKKEIQEIQRAINAENERIGELSLKLFQKRGRTEFEKEPRTDTNSSPSRASVCGIFVDFASASHRQKSRTQALKQKMRSTKLLRLIDLDFSFTFSLLDLPPVNEYDMYIRNFGKKNTKQAYVQCNEDNVERDIQTEEIETREVWTQHPGESTVVSGGSEQRDTSDAVVMPKIDTPRLCSFLRAACQVMAVLLEEDRLAAEPSWNLRAQDRALYFSDSSSQLNTSLPFLQNRKVSSLHTSRVQRQMVVSVHDLPEKSFVPLLDSKYVLCVWDIWQPSGPQKVLICESQVTCCCLSPLKAFLLFAGTAHGSVVVWDLREDSRLHYSVTLSDGFWTFRTATFSTDGILTSVNHRSPLQAVEPISTSVHKKQSFVLSPFSTQEEMSGLSFHIASLDESGVLNVWVVVELPKADIAGSISDLGLMPGGRVKLVHSALIQLGDSLSHKGNEFWGTTQTLNVKFLPSDPNHFIIGTDMGLISHGTRQDLRVAPKLFKPQQHGIRPVKVNVIDFSPFGEPIFLAGCSDGSIRLHQLSSAFPLLQWDSSTDSHAVTGLQWSPTRPAVFLVQDDTSNIYIWDLLQSDLGPVAKQQVSPNRLVAMAAVGEPEKAGGSFLALVLARASGSIDIQHLKRRWAAPEVDECNRLRLLLQEALWPEGKLHK
B3: GFP–WDR34-WT [human] / DYNLL2 [human (endogenous in RPE1)] (parent)
chain 1: B1 chain 1
chain 2: not shown

Variants of: B1
Assay: GFP-trap purification, TMT-labelling and mass spectrometry
Conditions: with LIC3 [human (endogenous in RPE1)]; RPE1 WDR34 KO cell lines expressing GFP proteins, serum-starved for 24 h; read off a plot
chain 1 A341V showed a ratio to parent of 2.2.

Variants of: B2
Assay: as above
Conditions: with WDR60 [human (endogenous in RPE1)]; RPE1 WDR34 KO cell lines expressing GFP proteins, serum-starved for 24 h; read off a plot
With chain 1 A341V the ratio to parent was 1.3. chain 1 K436R gave a ratio to parent of 1.4. Variant chain 1 R182W has a ratio to parent of 1.7. chain 1 R206C was tested, and the ratio to parent was 1.5.

Variants of: B3
Assay: as above
Conditions: with DYNLL2 [human (endogenous in RPE1)]; RPE1 WDR34 KO cell lines expressing GFP proteins, serum-starved for 24 h; read off a plot
Variant chain 1 T354M has a ratio to parent of 1.5.
